Target: adeno-associated virus (AAV)-DJ capsid protein
Experiment: cryo-EM structure

adeno-associated virus (AAV)-DJ capsid protein
stoichiometry N: 60
